{"source": "patent US7067277", "about": "(H LUNDBECK A S, dated 2006)", "binders": {"B1": {"name": "D. melanogaster Gαq/z5 (other)", "chain": "MECCLSEEAKEQKRINQEIEKQLRRDKRDARRELKLLLLGTGESGKSTFIKQMRIIHGSGYSDEDKRGYIKLVFQNIFMAMQSMIKAMDMLKISYGQGEHSELADLVMSIDYETVTTFEDPYLNAIKTLWDDAGIQECYDRRREYQLTDSAKYYLKDLDRVAQPAYLPTEQDILRVRVPTTGIIEYPFDLEEIRFRMVDVGGQRSERRKWIHCFENVTSIIFLVALSEYDQILFESDNENRMEESKALFRTIITYPWFQNSSVILFLNKKDLLEEKIMYSHLVDYFPEYDGPQRDAITAREFILRMFVDLNPDSEKIIYSHFTCATDTENIRFVFAAVKDTILQSNLKYIGLC"}, "B2": {"name": "Human Gαq/z5 (identical to Accession number L76256) (other)", "chain": "MTLESIMACCLSEEAKEARRINDEIERQLRRDKRDARRELKLLLLGTGESGKSTFIKQMRIIHGSGYSDEDKRGFTKLVYQNIFTAMQAMIRAMDTLKIPYKYEHNKAHAQLVREVDVEKVSAFENPYVDAIKSLWNDPGIQECYDRRREYQLSDSTKYYLNDLDRVADPAYLPTQQDVLRVRVPTTGIIEYPFDLQSVIFRMVDVGGQRSERRKWIHCFENVTSIMFLVALSEYDQVLVESDNENRMEESKALFRTIITYPWFQNSSVILFLNKKDLLEEKIMYSHLVDYFPEYDGPQRDAQAAREFILKMFVDLNPDSDKIIYSHFTCATDTENIRFVFAAVKDTILQLNLKYIGLC"}, "B3": {"name": "C. elegans Gαq/s9 (other)", "chain": "MACCLSEEAREQKRINQEIEKQLQRDKRNARRELKLLLLGTGESGKSTFIKQMRIIHGQGYSEEDKRAHIRLVYQNVFMAIQSMIRAMDTLDIKFGNESEELQEKAAVVREVDFESVTSFEEPYVSYIKELWEDSGIQECYDRRREYQLTDSAKYYLSDLRRLAVPDYLPTEQDILRVRVPTTGIIEYPFDLEQIIFRMVDVGGQRSERRKWIHCFENVTSIMFLVALSEYDQVLVECDNENRMEESKALFRTIITYPWFTNSSVILFLNKKDLLEEKILYSHLADYFPEYDGPPRDPIAAREFILKMFVDLNPDADKIIYSHFTCATDTENIRFVFAAVKDTILQMHLRQYELL"}, "B4": {"name": "Human Gαq/s5 (other)", "chain": "B2 chain with A171S, Y355Q, I356Y, G357E, C359L"}, "B5": {"name": "Human Gαq/s9 (other)", "chain": "B2 chain with A171S, L351M, N352H, K354R, Y355Q, I356Y, G357E, C359L"}, "B6": {"name": "C. elegans Gαq/s21 (other)", "chain": "B3 chain with F335R, A338N, A339D, V340C, K341R, T343I, L345Q, Q346R"}}, "note": "Numbering of substitutions follows the chain as printed."}
{"biological_target": "T1, human dopamine D1 receptor (human, UniProt P21728 1-446)", "T1 sequence (P21728 whole entry)": "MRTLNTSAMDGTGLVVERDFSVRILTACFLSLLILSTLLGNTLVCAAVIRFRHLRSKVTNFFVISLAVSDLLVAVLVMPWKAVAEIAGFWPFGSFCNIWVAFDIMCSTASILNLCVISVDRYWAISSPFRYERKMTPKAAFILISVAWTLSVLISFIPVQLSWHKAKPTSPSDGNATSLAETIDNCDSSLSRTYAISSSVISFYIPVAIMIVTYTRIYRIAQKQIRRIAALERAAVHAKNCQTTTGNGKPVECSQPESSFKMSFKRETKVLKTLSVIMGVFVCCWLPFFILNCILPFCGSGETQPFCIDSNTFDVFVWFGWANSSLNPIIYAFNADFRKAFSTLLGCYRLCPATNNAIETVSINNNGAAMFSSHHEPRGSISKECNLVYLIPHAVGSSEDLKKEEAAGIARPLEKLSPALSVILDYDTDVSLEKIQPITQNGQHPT", "assay": "cell-based or functional assay", "units": {"max Ca2+ signal, COS-7, FLIPR; 100 µM dopamine": "fluorescence units"}}
{"binder": "B1", "max Ca2+ signal, COS-7, FLIPR; 100 µM dopamine": 2150}
{"binder": "B2", "max Ca2+ signal, COS-7, FLIPR; 100 µM dopamine": 0}
{"biological_target": "T1, human dopamine D1 receptor", "assay": "cell-based or functional assay", "remark": "another data set of the same source", "units": {"max Ca2+ signal, COS-7, FLIPR; agonist dopamine; fold over hGαq/s9": "fold"}}
{"binder": "B3", "max Ca2+ signal, COS-7, FLIPR; agonist dopamine; fold over hGαq/s9": 1.5}
{"biological_target": "human 5HT7 receptor (human, UniProt P34969 1-479)", "sequence (P34969 whole entry)": "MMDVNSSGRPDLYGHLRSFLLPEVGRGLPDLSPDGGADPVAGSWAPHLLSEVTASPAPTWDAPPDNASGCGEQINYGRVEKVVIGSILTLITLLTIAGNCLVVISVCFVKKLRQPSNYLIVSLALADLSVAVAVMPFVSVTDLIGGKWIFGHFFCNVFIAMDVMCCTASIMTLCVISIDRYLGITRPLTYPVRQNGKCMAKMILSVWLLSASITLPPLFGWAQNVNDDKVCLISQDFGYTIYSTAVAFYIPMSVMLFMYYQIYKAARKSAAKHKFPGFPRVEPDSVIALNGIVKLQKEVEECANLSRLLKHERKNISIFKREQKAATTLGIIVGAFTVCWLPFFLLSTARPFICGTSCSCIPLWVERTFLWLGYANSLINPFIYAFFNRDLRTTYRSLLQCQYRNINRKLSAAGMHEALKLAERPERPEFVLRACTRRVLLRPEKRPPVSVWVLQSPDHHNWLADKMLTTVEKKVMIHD", "assay": "cell-based or functional assay", "units": {"max Ca2+ signal, COS-7, FLIPR; agonist 5HT": "fluorescence units"}}
{"binder": "B4", "max Ca2+ signal, COS-7, FLIPR; agonist 5HT": 0}
{"binder": "B5", "max Ca2+ signal, COS-7, FLIPR; agonist 5HT": 0}
{"binder": "B3", "max Ca2+ signal, COS-7, FLIPR; agonist 5HT": 387}
{"binder": "B6", "max Ca2+ signal, COS-7, FLIPR; agonist 5HT": 206}
{"biological_target": "human 5HT6 receptor (human, UniProt P50406 1-440)", "sequence (P50406 whole entry)": "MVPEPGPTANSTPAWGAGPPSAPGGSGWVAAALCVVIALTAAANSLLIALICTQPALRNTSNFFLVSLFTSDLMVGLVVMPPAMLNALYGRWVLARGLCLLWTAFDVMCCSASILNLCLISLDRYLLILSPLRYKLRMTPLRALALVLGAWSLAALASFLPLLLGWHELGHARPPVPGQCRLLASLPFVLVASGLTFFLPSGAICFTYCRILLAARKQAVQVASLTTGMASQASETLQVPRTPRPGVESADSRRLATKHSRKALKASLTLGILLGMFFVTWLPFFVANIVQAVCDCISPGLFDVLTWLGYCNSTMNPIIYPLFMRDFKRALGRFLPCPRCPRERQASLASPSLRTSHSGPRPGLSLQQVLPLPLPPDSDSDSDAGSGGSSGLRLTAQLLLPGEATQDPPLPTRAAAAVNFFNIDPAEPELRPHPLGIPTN", "assay": "cell-based or functional assay", "units": {"max Ca2+ signal, COS-7, FLIPR; agonist 5HT": "fluorescence units"}}
{"binder": "B4", "max Ca2+ signal, COS-7, FLIPR; agonist 5HT": 98}
{"binder": "B5", "max Ca2+ signal, COS-7, FLIPR; agonist 5HT": 999}
{"binder": "B3", "max Ca2+ signal, COS-7, FLIPR; agonist 5HT": 1640}
{"binder": "B6", "max Ca2+ signal, COS-7, FLIPR; agonist 5HT": 1010}
{"biological_target": "human dopamine D5 receptor (human, UniProt P21918 1-477)", "sequence (P21918 whole entry)": "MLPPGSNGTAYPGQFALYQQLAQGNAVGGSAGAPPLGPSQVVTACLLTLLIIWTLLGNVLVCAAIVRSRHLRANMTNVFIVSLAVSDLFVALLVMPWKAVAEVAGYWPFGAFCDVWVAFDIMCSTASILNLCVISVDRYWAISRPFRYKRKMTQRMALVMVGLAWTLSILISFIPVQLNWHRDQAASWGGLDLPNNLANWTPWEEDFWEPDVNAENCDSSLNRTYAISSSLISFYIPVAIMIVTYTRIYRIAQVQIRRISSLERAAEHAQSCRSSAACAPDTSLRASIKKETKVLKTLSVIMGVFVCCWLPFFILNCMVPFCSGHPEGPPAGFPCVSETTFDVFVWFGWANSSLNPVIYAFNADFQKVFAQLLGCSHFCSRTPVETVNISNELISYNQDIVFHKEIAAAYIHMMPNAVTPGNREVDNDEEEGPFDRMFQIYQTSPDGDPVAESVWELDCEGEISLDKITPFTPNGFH", "assay": "cell-based or functional assay", "units": {"max Ca2+ signal, COS-7, FLIPR; agonist DA": "fluorescence units"}}
{"binder": "B4", "max Ca2+ signal, COS-7, FLIPR; agonist DA": 0}
{"binder": "B5", "max Ca2+ signal, COS-7, FLIPR; agonist DA": 745}
{"binder": "B3", "max Ca2+ signal, COS-7, FLIPR; agonist DA": 1870}
{"binder": "B6", "max Ca2+ signal, COS-7, FLIPR; agonist DA": 3380}
{"biological_target": "T1, human dopamine D1 receptor", "assay": "cell-based or functional assay", "remark": "another data set of the same source", "units": {"max Ca2+ signal, COS-7, FLIPR; agonist DA": "fluorescence units"}}
{"binder": "B4", "max Ca2+ signal, COS-7, FLIPR; agonist DA": 0}
{"binder": "B5", "max Ca2+ signal, COS-7, FLIPR; agonist DA": 5690}
{"binder": "B3", "max Ca2+ signal, COS-7, FLIPR; agonist DA": 8690}
{"binder": "B6", "max Ca2+ signal, COS-7, FLIPR; agonist DA": 9430}
{"biological_target": "human β2 adrenergic receptor (human, UniProt P07550 1-413)", "assay": "cell-based or functional assay", "units": {"max Ca2+ signal, COS-7, FLIPR; agonist NE": "fluorescence units"}}
{"binder": "B4", "max Ca2+ signal, COS-7, FLIPR; agonist NE": 43}
{"binder": "B5", "max Ca2+ signal, COS-7, FLIPR; agonist NE": 1440}
{"binder": "B3", "max Ca2+ signal, COS-7, FLIPR; agonist NE": 3110}
{"binder": "B6", "max Ca2+ signal, COS-7, FLIPR; agonist NE": 3510}
{"biological_target": "human GLP-1 receptor (human, UniProt P43220 24-463)", "assay": "cell-based or functional assay", "units": {"max Ca2+ signal, COS-7, FLIPR; agonist GLP-1": "fluorescence units"}}
{"binder": "B4", "max Ca2+ signal, COS-7, FLIPR; agonist GLP-1": 189}
{"binder": "B5", "max Ca2+ signal, COS-7, FLIPR; agonist GLP-1": 4200}
{"binder": "B3", "max Ca2+ signal, COS-7, FLIPR; agonist GLP-1": 2460}
{"binder": "B6", "max Ca2+ signal, COS-7, FLIPR; agonist GLP-1": 3120}
{"biological_target": "human 5HT4 receptor (human, UniProt Q13639 1-388)", "sequence (Q13639 whole entry)": "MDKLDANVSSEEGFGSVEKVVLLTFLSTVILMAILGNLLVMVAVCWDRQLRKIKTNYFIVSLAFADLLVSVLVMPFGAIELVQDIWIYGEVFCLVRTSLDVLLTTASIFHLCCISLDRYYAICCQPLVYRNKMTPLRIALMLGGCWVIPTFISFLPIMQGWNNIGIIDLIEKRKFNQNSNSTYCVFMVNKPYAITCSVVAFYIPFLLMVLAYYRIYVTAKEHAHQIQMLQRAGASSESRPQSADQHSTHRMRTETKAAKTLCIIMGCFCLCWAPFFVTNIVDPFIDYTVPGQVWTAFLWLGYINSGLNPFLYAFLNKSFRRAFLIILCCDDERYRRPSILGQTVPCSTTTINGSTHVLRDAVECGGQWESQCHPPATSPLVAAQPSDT", "assay": "cell-based or functional assay", "units": {"max Ca2+ signal, COS-7, FLIPR; agonist 5HT": "fluorescence units"}}
{"binder": "B4", "max Ca2+ signal, COS-7, FLIPR; agonist 5HT": 1710}
{"binder": "B5", "max Ca2+ signal, COS-7, FLIPR; agonist 5HT": 2310}
{"binder": "B3", "max Ca2+ signal, COS-7, FLIPR; agonist 5HT": 1700}
{"binder": "B6", "max Ca2+ signal, COS-7, FLIPR; agonist 5HT": 1730}
